Assay results reported in PMC10495444.

Key:
[1] = target: mXkr4ΔC Q332E (aXkr4), constitutively active mutant, fused with monomeric EGFP (mouse); test: SEC + native gel or EMSA; whole lysate of transfected HEK293T cells in LMNG/GDN 1:1 loaded on Superdex Increase 200 10/300 GL (10 mM HEPES-NaOH pH 7.5, 150 mM NaCl, 0.01% LMNG/GDN, 10% glycerol, 1 mM CaCl2 or 0.5 mM EGTA); dimer fraction collected by EGFP fluorescence; then BN-PAGE with anti-V5 blot after 1 h at 4, 16, 25 or 37 °C
[2] = target: mouse Xkr4 C-terminal cleaved form (mXkr4ΔC) fused with monomeric EGFP (mouse); test: as above

stoichiometry N [1]	stoichiometry N [2]	Substance
2		mXkr4ΔC Q332E (aXkr4), constitutively active mutant, fused with monomeric EGFP (domain or fragment)
	2	mouse Xkr4 C-terminal cleaved form (mXkr4ΔC) fused with monomeric EGFP (domain or fragment)
